{"source": "paper PMC8382915", "key": {"[1]": {"target": "Rickettsiales bacterium TMED131 CuZn superoxide dismutase (RbCuZnSOD) (Rickettsiales bacterium TMED131)", "assay": "SEC-MALS; size-exclusion chromatography coupled static light scattering (SEC-SLS), masses from refractive index; 20 mM Tris-HCl pH 7.4, 150 mM NaCl"}, "[2]": {"target": "Bacteroidetes bacterium GWA2_30_7 CuZn superoxide dismutase (BbCuZnSOD) (Bacteroidetes bacterium GWA2_30_7)", "assay": "SEC-MALS; size-exclusion chromatography coupled static light scattering (SEC-SLS), masses from refractive index; 20 mM Tris-HCl pH 7.4, 150 mM NaCl"}}}
{"substance": "Rickettsiales bacterium TMED131 CuZn superoxide dismutase (RbCuZnSOD) (enzyme)", "values": [{"measurement": "stoichiometry N", "setting": "[1]", "result": 2}]}
{"substance": "Bacteroidetes bacterium GWA2_30_7 CuZn superoxide dismutase (BbCuZnSOD) (enzyme)", "values": [{"measurement": "stoichiometry N", "setting": "[2]", "result": 2}]}
